The target in one assay is T1, human transferrin (human, UniProt P02787 20-698).
T1 construct: Control protein; also called hTF; ThF
In words: ELISA on coated protein; biotinylated peptide premixed 4:1 with SA-AP; absorbance. Here is the method:
(§1) The binding activity of the thus obtained biotinylated synthetic peptides to human IgG was assayed by an ELISA assay. […] Specifically, wells coated with human IgG (100 ng/50 μl/well) were blocked by the addition of 0.5% BSA. A biotinylated synthetic peptide and alkaline phosphatase-labeled streptavidin (SA-AP) were mixed in advance at a molar ratio of 4:1 and then the mixture was added to the well, followed by 1 hour of reaction. Para-nitrophenyl phosphate (Wako) was used for color development. Detection was carried out by measuring absorbance at 405 nm. As a positive control of human IgG, the Fc fragment of hIgG was used. As other control proteins, human IgA and IgE, mouse IgG, IgA, and IgE, hTF, fetal bovine serum (FBS), HSA, BSA, and gelatin were used.
Background: ELISA stands for enzyme-linked immunosorbent assay.

In a further assay the target is T2, human serum albumin (human, UniProt P02768 25-609).
T2 construct: Control protein; also called HSA
The description is as above. Here is the method: as §1

The target in the next assay is T3, bovine serum albumin (bovine, UniProt P02769 25-607).
T3 construct: Control protein; also called BSA
The assay is described as above. Here is the method: as §1

Assay [1] concerns the target T4, polyclonal human IgG antibody (serum-derived) (human).
T4 construct: also called hIgG
The experiment in a line: SPR (BIAcore2000, 25 C), biotinylated peptide on SA chip, human IgG as analyte (41 to 660 nM). Here is the method: SPR analysis was carried out using BIAcore2000 (BIAcore) at 25° C. Necessary reagents and sensor chips were purchased from BIAcore and then used. […] The amount of each peptide to be immobilized was adjusted so that the RU (response unit) ranged from 1500 to 2000. […] Binding reaction between human IgG and the peptides was measured. Thereafter, washing with running buffer (HBS-T) was conducted and then dissociation reaction was measured. For washing/elution of bound analytes from the sensor chips, 0.2 M glycine-HCl buffer (pH 2.7) was used. Binding parameters were analyzed using BIA evaluation Version 3.2 software.
A general note: Surface plasmon resonance follows binding to a sensor surface in real time, without labels.

The target of assay [2] is T5, anti-HER2 human antibody (Herceptin), acid-treated.
T5 construct: Same antibody as m38 after acid treatment and neutralisation; also called acid-treated anti-HER2 human IgG; acid-denatured anti-HER2 human IgG
The experiment in a line: SPR, peptides on sensor chips, antibody 250 nM; acid treatment pH 2.1, 20 C, 10 min; reference Fc-III peptide. Here is the method: (§2) For this SPR analysis, human IgG samples were prepared via acid treatment under various conditions as described below and then tested. […] Subsequently, 30 μl (or 20 μl for a sample to which glycine-HCl with pH 2.7 had been added) of 1 M Tris-HCl (pH 8.7) was added to each solution for neutralization.

Assay [3] has as its target T5, anti-HER2 human antibody (Herceptin), …. The experiment in a line: SPR, peptides on sensor chips, antibody 250 nM; acid treatment pH 2.1, 40 C, 10 min; reference Fc-III peptide. Here is the method: as §2
Assay [4] has the same target. In words: SPR, peptides on sensor chips, antibody 250 nM; acid treatment pH 2.7, 20 C, 10 min; reference Fc-III peptide. Here is the method:
as §2

The target is the same in assay [5]. In words: SPR, peptides on sensor chips, antibody 250 nM; acid treatment pH 2.7, 30 C, 10 min; reference Fc-III peptide. Here is the method:
as §2

The target is the same in assay [6]. In words: SPR, peptides on sensor chips, antibody 250 nM; acid treatment pH 2.7, 40 C, 10 min; reference Fc-III peptide. Here is the method: as §2

Positions of bridges follow the written chain, without caps; N, C: chain ends. No end group written: not given here. *: point of attachment. Biotin = O=C1N[C@H]2[C@H](CS[C@H]2CCCCC(=O)*)N1

As a reminder, the Kd is the concentration at which binding is half-saturated. The low end stands for higher affinity, the high end for lower affinity. Broadly, the koff is the rate constant with which the complex falls apart. Read a low koff as a long-lived complex. In general, kon refers to a measure of how fast the partners come together. Low values mean slower complex formation, high ones faster complex formation.

T3 sequence (P02769 25-607 limits assumed): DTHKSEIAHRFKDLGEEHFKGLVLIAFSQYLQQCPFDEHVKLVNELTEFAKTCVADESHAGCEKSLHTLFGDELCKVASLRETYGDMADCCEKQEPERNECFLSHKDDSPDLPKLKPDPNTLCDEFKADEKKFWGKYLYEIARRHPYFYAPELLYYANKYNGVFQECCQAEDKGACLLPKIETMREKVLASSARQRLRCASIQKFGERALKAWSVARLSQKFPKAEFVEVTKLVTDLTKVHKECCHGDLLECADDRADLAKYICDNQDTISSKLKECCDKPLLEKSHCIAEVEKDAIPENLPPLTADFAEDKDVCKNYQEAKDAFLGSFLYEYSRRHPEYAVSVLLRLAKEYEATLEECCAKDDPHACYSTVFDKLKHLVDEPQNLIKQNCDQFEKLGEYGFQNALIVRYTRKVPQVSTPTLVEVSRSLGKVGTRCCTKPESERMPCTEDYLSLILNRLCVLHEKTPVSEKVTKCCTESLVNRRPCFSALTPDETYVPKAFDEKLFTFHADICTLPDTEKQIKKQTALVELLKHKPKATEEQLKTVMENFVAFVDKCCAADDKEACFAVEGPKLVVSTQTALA
T1 sequence (P02787 20-698 limits assumed): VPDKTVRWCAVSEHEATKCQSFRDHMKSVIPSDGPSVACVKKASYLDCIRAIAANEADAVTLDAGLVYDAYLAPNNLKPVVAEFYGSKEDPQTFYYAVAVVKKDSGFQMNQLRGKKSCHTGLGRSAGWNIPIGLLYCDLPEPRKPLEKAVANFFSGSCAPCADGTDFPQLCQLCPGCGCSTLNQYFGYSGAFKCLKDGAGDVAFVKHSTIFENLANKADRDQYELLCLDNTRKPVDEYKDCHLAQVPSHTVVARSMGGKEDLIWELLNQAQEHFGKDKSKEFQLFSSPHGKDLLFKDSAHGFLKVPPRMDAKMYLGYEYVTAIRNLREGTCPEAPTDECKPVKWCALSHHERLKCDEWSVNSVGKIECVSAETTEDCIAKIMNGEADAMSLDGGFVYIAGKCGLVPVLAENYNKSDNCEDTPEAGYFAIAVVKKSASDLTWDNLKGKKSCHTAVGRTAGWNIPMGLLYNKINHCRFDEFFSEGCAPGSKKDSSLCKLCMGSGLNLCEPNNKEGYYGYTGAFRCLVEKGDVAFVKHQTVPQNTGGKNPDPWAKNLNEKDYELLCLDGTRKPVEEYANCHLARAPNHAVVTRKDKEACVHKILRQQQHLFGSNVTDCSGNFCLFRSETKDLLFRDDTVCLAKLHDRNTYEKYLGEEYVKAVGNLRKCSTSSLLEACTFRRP

On to {Biotin-LC}-GCTGYWPKAWGLCG (disulfide 2-13 (inferred), also called biotinylated IMGpep-4) [synthetic peptide IMGpep-4], for which the binding result in the assay with human transferrin, with human serum albumin and with bovine serum albumin was “no binding” each time. Further, in [1], the Kd stood at 28 nM. Besides, the off-rate (koff) in assay [1] was 0.00041 s⁻¹. The same molecule showed a kon in assay [1] of 14000 M⁻¹ s⁻¹.
Regarding GCTGYWPRAWGLCG (disulfide 2-13 (inferred); not fully specified (N-terminus), also called biotinylated IMGpep-4K6R) [synthetic peptide IMGpep-4K6R], the binding result in the assay with human transferrin, in the assay with human serum albumin and with bovine serum albumin was “no binding” in each case. This molecule also registered an equilibrium dissociation constant (Kd) in assay [1] of 24 nM. The “generation rate of acid-denatured IgG (ratio a/b of the SPR response on the IMGpep-4K6R chip to that on the Fc-III chip)” value was 7.8% in assay [2]; around 40% in [3]; around 5% in [4]; 9.7% in assay [5]; 40% in [6].
Take {Biotin-LC}-GCGYWRSEWGLCG (disulfide 2-12 (inferred), also called biotinylated IMGpep-1) [synthetic peptide IMGpep-1]: the binding result with human transferrin was “no binding”. Besides, in the assay with bovine serum albumin, the binding result is on record as “no binding”. Further, in assay [1], the Kd came out at 17 nM, the koff is 0.00034 s⁻¹ and the kon was found to be 20000 M⁻¹ s⁻¹.
As for {Biotin-LC}-GCGYWRSQWGLCG (disulfide 2-12 (inferred), also called biotinylated IMGpep-1E6Q) [synthetic peptide IMGpep-1E6Q], the binding result with human transferrin, with human serum albumin and in the assay with bovine serum albumin was “no binding” in each case. Further, in [1], the Kd is 21 nM. In [1], this molecule gave a koff of 0.00031 s⁻¹. Further, in [1], the kon came to 15000 M⁻¹ s⁻¹.

B1: synthetic peptide IMGpep-1CS (peptide)
peptide: {Biotin-LC}-GSGYWRSEWGLSG
notes: Both Cys of IMGpep-1 replaced by Ser; linear control peptide; also called biotinylated IMGpep-1CS
As for B1, the binding result in the assay with human transferrin, with human serum albumin and with bovine serum albumin was “no binding” in each case.

(Values after patent US20100297606A1 (KAGOSHIMA UNIVERSITY, published 2010).)
